The experiment concerns the target T1, Av1 antibody.
T1 construct: also called parental AV1 antibody; anti-IL6R antibody
Description: FACS of the peptide displayed on cells.

T1 sequence (heavy, as listed by the source, chain 1 of 2): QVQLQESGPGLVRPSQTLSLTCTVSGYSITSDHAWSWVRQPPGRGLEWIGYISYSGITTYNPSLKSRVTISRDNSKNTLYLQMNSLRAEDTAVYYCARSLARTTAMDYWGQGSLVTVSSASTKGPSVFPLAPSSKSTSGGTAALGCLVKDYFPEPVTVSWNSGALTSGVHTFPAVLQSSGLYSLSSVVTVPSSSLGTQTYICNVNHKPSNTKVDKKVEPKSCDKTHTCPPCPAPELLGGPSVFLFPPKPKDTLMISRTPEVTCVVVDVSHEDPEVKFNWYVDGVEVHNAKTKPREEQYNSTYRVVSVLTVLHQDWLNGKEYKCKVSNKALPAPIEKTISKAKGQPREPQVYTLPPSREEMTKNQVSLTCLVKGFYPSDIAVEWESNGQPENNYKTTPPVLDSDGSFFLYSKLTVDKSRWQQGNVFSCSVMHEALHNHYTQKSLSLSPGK
T1 sequence (light, as listed by the source, chain 2 of 2): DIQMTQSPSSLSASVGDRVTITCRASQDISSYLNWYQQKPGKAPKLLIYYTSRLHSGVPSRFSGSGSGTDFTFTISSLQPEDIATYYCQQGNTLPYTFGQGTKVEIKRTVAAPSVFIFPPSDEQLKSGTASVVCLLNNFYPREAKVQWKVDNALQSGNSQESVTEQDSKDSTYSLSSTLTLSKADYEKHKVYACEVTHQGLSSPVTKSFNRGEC

With YRSCNWNYVSIFLDC (also called 4278; parental peptide) [Peptide 1 (SEQ ID NO: 33)], the binding result is given as “binds”.

Turning to PGAFDIPFPAHWVPNT (also called 4280; parental peptide) [Peptide 2 (SEQ ID NO: 34)], the binding result is “binds”.

For the origin of these results see patent US20200339694A1 (CYTOMX THERAPEUTICS, published 2020).
